{"source": "patent US5929223", "biological_target": "T1, dCREB2-a (Drosophila melanogaster) (UniProt Q9VWW0)", "T1 sequence": "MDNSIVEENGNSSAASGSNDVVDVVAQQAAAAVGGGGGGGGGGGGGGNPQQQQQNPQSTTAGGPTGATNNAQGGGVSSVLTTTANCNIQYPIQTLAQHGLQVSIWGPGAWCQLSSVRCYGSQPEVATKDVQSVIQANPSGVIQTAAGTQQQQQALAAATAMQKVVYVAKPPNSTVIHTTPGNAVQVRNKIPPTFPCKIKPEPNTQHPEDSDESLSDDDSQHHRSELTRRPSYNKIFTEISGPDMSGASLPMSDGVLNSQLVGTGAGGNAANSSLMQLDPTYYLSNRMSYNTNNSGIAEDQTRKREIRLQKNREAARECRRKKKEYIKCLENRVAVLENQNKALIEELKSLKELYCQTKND", "experiment": "cell_activity", "conditions": "F9 cells, with PKA, relative to PKA alone"}
{"substance": "D(-71) CAT somatostatin promoter CRE fragment", "values": [{"measurement": "activity", "result": 5.4, "unit": "fold"}]}
